Assay results from patent publication US20160102367A1 (TRUSTEES OF COLUMBIA UNIVERSITY IN THE CITY OF NEW YORK, published 2016).
Non-standard residues stand in square brackets, D forms with d. No end group written: not given here. *: point of attachment. Biotin = O=C1N[C@H]2[C@H](CS[C@H]2CCCCC(=O)*)N1; pY = N[C@@H](Cc1ccc(OP(=O)(O)O)cc1)C(=O)O

B1: amino acid 527-537 Y51H FYN biotinylated peptide (biotin-TEPQHQPGENL) (peptide)
peptide: Biotin-TEPQHQPGENL
notes: also called mutant Tyr531His FYN C-terminal peptide
B2: amino acid 527-537 pY531 FYN biotinylated peptide (biotin-TEPQpYQPGENL) (peptide)
peptide: Biotin-TEPQ[pY]QPGENL
notes: Synthetic peptide (Anaspec Inc); also called Tyr531 phosphopeptide; P-Tyr531 FYN C-terminal peptide

Assays:
Assay in all cases: streptavidin-biotin peptide pull down, anti-GST Western blot
[1] = biological target: T1, GST-FYN-SH2 (wild type FYN SH2 domain, codons 148-231, N-terminal GST tag) (UniProt P06241 148-231)
T1 construct: range 148-231; Expressed in E. coli Rosetta 2(DE3) and purified on glutathione Sepharose; also called GST-SH2-FYN; GST-FYN SH2 domain; not shown: N-terminal GST tag from the pGEX4-T1 vector
T1 sequence (P06241 148-231): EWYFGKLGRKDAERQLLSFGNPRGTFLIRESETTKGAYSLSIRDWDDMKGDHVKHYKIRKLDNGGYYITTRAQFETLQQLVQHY
Experimental: (§1) GST-tagged FYN SH2 domain proteins were purified by binding them to immobilized glutathione Sepharose beads (Thermo scientific) and eluting them with 50 mM reduced Glutathione, 50 mM Tris, pH 7.4, 150 mM NaCl, 5% glycerol, 5 mM β-mercaptoethanol. Protein expression and purity were assessed by Coomassie staining. Binding assay was performed with Pull-Down Biotinylated Protein-protein Interaction Kit (Thermo scientific) according to the manufacturer's instructions using an amino acid 527-537 FYN biotinylated peptide (biotin-[…])(SEQ ID NO: 1); an amino acid 527-537 pY531 FYN biotinylated peptide (biotin-TEPQpYQPGENL)(SEQ ID NO: 2) and an amino acid 527-537 […] FYN biotinylated peptide (biotin-[…])(SEQ ID NO: 3) (Anaspec Inc). Synthetic biotinylated peptides were incubated with purified GST-FYN SH2 domain, mutant FYN SH2 domain or GST alone for 1 h at 4° C. Interacting proteins were resolved on 10% SDS-polyacrylamide gel electrophoresis (SDS-PAGE) and transferred to a PVDF membrane and subjected to Western blot with an anti-GST antibody.
(§2) In addition, structure model analysis of FYN and FYN mutant proteins further supported this hypothesis. (See FIG. 4C which is a molecular ribbon representation of wild type FYN protein structure showing the positioning of the FYN SH2 domain and the C terminal Tyr531 phosphosite and FIG. 4D which illustrates structure modeling of FYN Tyr531His, FYN Arg176Cys and FYN Leu174Arg mutant proteins.) The interaction between GST-FYN-SH2 recombinant proteins and biotinylated C-terminal FYN peptides encompassing the position Tyr531 was analyzed. In these assays, wild type GST-FYN-SH2 was effectively pulled down with a Tyr531 phosphopeptide, but not with the corresponding unphosphorylated sequence or with a peptide containing a Tyr531His substitution. […]

GST-SH2-FYN Leu174Arg = biological target: T2, GST-SH2-FYN Leu174Arg (Homo sapiens (Human), UniProt P06241 148-231)
T2 construct: also called GST-FYN-SH2 L174R; not shown: The N-terminal GST tag and the pGEX4-T1 linker
T2 sequence (P06241 148-231 L174R limits assumed): as the sequence (P06241 148-231) above, with L27R counted along it
Experimental: as §1, §2

GST-SH2-FYN Arg176Cys = biological target: T3, GST-SH2-FYN Arg176Cys (Homo sapiens (Human), UniProt P06241 148-231)
T3 construct: also called GST-FYN-SH2 R176C; not shown: The N-terminal GST tag and the pGEX4-T1 linker
T3 sequence (P06241 148-231 R176C limits assumed): as the sequence (P06241 148-231) above, with R29C counted along it
Experimental: as §1, §2

Binder	binding result [1]	binding result (GST-SH2-FYN Leu174Arg)	binding result (GST-SH2-FYN Arg176Cys)
B1	no binding		
B2		no binding	no binding
